For assay [1], the target named is recombinant cynomolgus BCMA Fc(kih) (cynomolgus, UniProt A0A2K5UD97 4-51, biotinylated in vivo at the avi-tag at the C-terminus of the Fc knob chain). The experiment in a line: ratio of the SPR KDs of Table 4, human BCMA as reference. The protocol: Assessment of binding of anti-BCMA antibodies to recombinant BCMA by surface plasmon resonance (SPR) as follow. All SPR experiments were performed on a Biacore T200 at 25° C. with HBS-EP as running buffer (0.01M HEPES pH 7.4, 0.15M NaCl, 3 mM EDTA, 0.005% Surfactant P20, Biacore, Freiburg/Germany). The avidity of the interaction between anti-BCMA antibodies and recombinant BCMA Fc(kih) (human and cynomolgus) was determined. Biotinylated recombinant human and cynomolgus BCMA Fc(kih) were directly coupled on a SA chip following instructions (Biacore, Freiburg/Germany). The immobilization level ranged from 200 to 700 RU. […] The dissociation was monitored for 180 seconds. Bulk refractive index differences were corrected for by subtracting the response obtained on the reference flow cell. Here, the anti-BCMA antibodies were flown over an empty surface previously activated and deactivated as described in the standard amine coupling kit. Apparent kinetic constants were derived using the Biacore T200 Evaluation Software (vAA, Biacore AB, Uppsala/Sweden), to fit rate equations for 1:1 Langmuir binding by numerical integration, despite the bivalency of the interaction for comparison purposes. The affinity of the interaction between anti-BCMA antibodies and recombinant human BCMA Fc(kih) was also determined. Anti-human Fab antibody (GE Healthcare) was directly coupled on a CM5 chip at pH 5.0 using the standard amine coupling kit (Biacore, Freiburg/Germany). The immobilization level was about 6500 RU. […] The dissociation was monitored for 120 seconds. Bulk refractive index differences were corrected for by subtracting the response obtained on reference flow cell. […] Kinetic constants were derived using the Biacore T100 Evaluation Software (vAA, Biacore AB, Uppsala/Sweden), to fit rate equations for 1:1 Langmuir binding by numerical integration (Table 4).
recombinant cynomolgus BCMA Fc(kih), sequence (A0A2K5UD97 entry or part of it): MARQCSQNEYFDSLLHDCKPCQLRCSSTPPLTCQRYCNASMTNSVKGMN

In assay [2] the target is T1, human BCMA on the cell surface (human, UniProt Q02223 1-184).
T1 sequence (looked up): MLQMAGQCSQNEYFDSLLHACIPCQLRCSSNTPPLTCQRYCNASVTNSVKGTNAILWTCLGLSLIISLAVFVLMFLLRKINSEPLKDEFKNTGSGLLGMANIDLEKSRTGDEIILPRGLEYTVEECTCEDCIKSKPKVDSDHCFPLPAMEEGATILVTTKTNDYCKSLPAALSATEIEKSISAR
The experiment in a line: cell-based or functional assay.

Assay [3] concerns the target T1, human BCMA on the cell surface. The assay can be described thus: cell-based or functional assay. This is another data set of the same source.
Assay [4] has the same target. The assay can be described thus: cell-based or functional assay. This is another data set of the same source.

B1: Mab 21 IgG (antibody, V domains shown)
VH: EVQLLESGGGLVQPGGSLRLSCAASGFTFSDNAMGWVRQAPGKGLEWVSAISGPGSSTYYADSVKGRFTISRDNSKNTLYLQMNSLRAEDTAVYYCAKVLGWFDYWGQGTLVTVSS
VL: EIVLTQSPGTLSLSPGERATLSCRASQSVSEYYLAWYQQKPGQAPRLLIEHASTRATGIPDRFSGSGSGTDFTLTISRLEPEDFAVYYCQQYGYPPDFTFGQGTKVEIK
notes: Tested as human IgG1; also called antibody 21
Consider B1, for which the “Affinity cyno/hu gap (KD cynomolgus BCMA / KD human BCMA)” value in assay [1] was determined as 9.3 fold.

B2: 21-TCBcv (bispecific antibody, human IgG1, kappa, L234A L235A)
heavy 1: not shown
heavy 2: EVQLLESGGGLVQPGGSLRLSCAASGFTFSDNAMGWVRQAPGKGLEWVSAISGPGSSTYYADSVKGRFTISRDNSKNTLYLQMNSLRAEDTAVYYCAKVLGWFDYWGQGTLVTVSSASTKGPSVFPLAPSSKSTSGGTAALGCLVEDYFPEPVTVSWNSGALTSGVHTFPAVLQSSGLYSLSSVVTVPSSSLGTQTYICNVNHKPSNTKVDEKVEPKSCDKTHTCPPCPAPEAAGGPSVFLFPPKPKDTLMISRTPEVTCVVVDVSHEDPEVKFNWYVDGVEVHNAKTKPREEQYNSTYRVVSVLTVLHQDWLNGKEYKCKVSNKALGAPIEKTISKAKGQPREPQVCTLPPSRDELTKNQVSLSCAVKGFYPSDIAVEWESNGQPENNYKTTPPVLDSDGSFFLVSKLTVDKSRWQQGNVFSCSVMHEALHNHYTQKSLSLSPGK
light 1: EIVLTQSPGTLSLSPGERATLSCRASQSVSEYYLAWYQQKPGQAPRLLIEHASTRATGIPDRFSGSGSGTDFTLTISRLEPEDFAVYYCQQYGYPPDFTFGQGTKVEIKRTVAAPSVFIFPPSDRKLKSGTASVVCLLNNFYPREAKVQWKVDNALQSGNSQESVTEQDSKDSTYSLSSTLTLSKADYEKHKVYACEVTHQGLSSPVTKSFNRGEC
light 2: EVQLLESGGGLVQPGGSLRLSCAASGFTFSTYAMNWVRQAPGKGLEWVSRIRSKYNNYATYYADSVKGRFTISRDDSKNTLYLQMNSLRAEDTAVYYCVRHGNFGNSYVSWFAYWGQGTLVTVSSASVAAPSVFIFPPSDEQLKSGTASVVCLLNNFYPREAKVQWKVDNALQSGNSQESVTEQDSKDSTYSLSSTLTLSKADYEKHKVYACEVTHQGLSSPVTKSFNRGEC
Regarding B2, in assay [2], the “EC50 redirected T-cell killing of H929 cells (LDH release), Donor 1” value was 0.0971 nM; the “EC50 redirected T-cell killing of H929 cells (LDH release), Donor 3” value was determined as 0.0421 nM; the “EC50 redirected T-cell killing of H929 cells (LDH release), Donor 4” value was found to be 0.0539 nM; the “EC50 redirected T-cell killing of H929 cells (LDH release), Donor 5” value amounted to 0.0387 nM. Besides, in assay [3], the “EC50 redirected T-cell killing of L363 cells (LDH release), Donor 1” value was found to be 0.0836 nM; the “EC50 redirected T-cell killing of L363 cells (LDH release), Donor 2” value was 0.0384 nM; the “EC50 redirected T-cell killing of L363 cells (LDH release), Donor 3” value was found to be 0.0189 nM; the “EC50 redirected T-cell killing of L363 cells (LDH release), Donor 4” value was 0.0191 nM. For the same molecule, the “EC50 redirected T-cell killing of L363 cells (LDH release), Donor 5” value in assay [3] was determined as 0.0464 nM. Further, in assay [4], the “EC50 redirected T-cell killing of RPMI-8226 cells (LDH release), Donor 2” value was 0.0413 nM; the “EC50 redirected T-cell killing of RPMI-8226 cells (LDH release), Donor 3” value worked out at 0.0088 nM; the “EC50 redirected T-cell killing of RPMI-8226 cells (LDH release), Donor 4” value stood at 0.004 nM; the “EC50 redirected T-cell killing of RPMI-8226 cells (LDH release), Donor 5” value is 0.0084 nM.

For the origin of these results see patent publication US20230322957A1 (ENGMAB SARL, published 2023).
